Read-outs that look alike come from different tables or passages of the source.
Experiments:
Assay in all cases: fluorescence polarisation
[1] = target: ERα-ctp (1), N-fluorescein-labeled C-terminal hexaphosphopeptide of ERα
[2] = target: Task3-ctp (2), N-fluorescein-labeled C-terminal hexaphosphopeptide of Task3
[3] = target: GpIBα-ctp (3), N-fluorescein-labeled C-terminal hexaphosphopeptide of GpIBα
[4] = target: Task3-ctp (2), N-fluorescein-labeled C-terminal hexaphosphopeptide of Task3; remark: listed apart in the source
[5] = target: GpIBα-ctp (3), N-fluorescein-labeled C-terminal hexaphosphopeptide of GpIBα; remark: listed apart in the source
[6] = target: ERα-ctp (1), N-fluorescein-labeled C-terminal hexaphosphopeptide of ERα; remark: listed apart in the source

| Molecule | Kd [1] [nM] | Kd [2] [nM] | Kd [3] [nM] | Kd [4] [nM] | Kd [5] [nM] | Kd [6] [nM] |
| --- | --- | --- | --- | --- | --- | --- |
| human 14-3-3β (from UniProt P31946 1-246) (natural protein) | 720 | 2400 | 18000 |  | 870 |  |
| human 14-3-3τ (natural protein) MEKTELIQKAKLAEQAERYDDMATCMKAVTEQGAELSNEERNLLSVAYKNVVGGRRSAWRVISSIEQKTDTSDKKLQLIKDYREKVESELRSICTTVLELLDKYLIANATNPESKVFYLKMKGDYFRYLAEVACGDDRKQTIDNSQGAYQEAFDISKKEMQPTHPIRLGLALNFSVFYYEILNNPELACTLAKTAFDEAIAELDTLNEDSYKDSTLIMQLLRDNLTLWTSDSAGEECDAAEGAEN | 1100 | 2200 | 20000 |  |  | 130 |
| human 14-3-3σ (natural protein) MERASLIQKAKLAEQAERYEDMAAFMKGAVEKGEELSCEERNLLSVAYKNVVGGQRAAWRVLSSIEQKSNEEGSEEKGPEVREYREKVETELQGVCDTVLGLLDSHLIKEAGDAESRVFYLKMKGDYYRYLAEVATGDDKKRIIDSARSAYQEAMDISKKEMPPTNPIRLGLALNFSVFHYEIANSPEEAISLAKTTFDEAMADLHTLSEDSYKDSTLIMQLLRDNLTLWTADNAGEEGGEAPQEPQS | 6600 | 2100 | 47000 |  |  |  |

Further molecules by falling Kd [1], results first:

| Kd [1] [nM] | Kd [2] [nM] | Kd [3] [nM] | Kd [4] [nM] | Kd [5] [nM] | Kd [6] [nM] | Molecule |
| --- | --- | --- | --- | --- | --- | --- |
| 3400 | 6000 | 28000 | 160 | 1700 |  | human 14-3-3ε (from UniProt P62258 1-255) (natural protein) |
| 1500 | 1300 | 20000 |  |  |  | human 14-3-3ζ (from UniProt P63104 1-245) (natural protein) |

From publication PMC7542595
